Test [1] addresses PP2A-B55α heterotrimer (not stated | human (endogenous in HEK293)) (UniProt P63151).
Test [2] deals with PP2A-B55 heterotrimer (B55 isoform not named for the experiment) (not stated | human (endogenous in HEK293)) (UniProt P63151).
For test [3] the target is unchanged. As to the kind of experiment: inhibition of phosphatase activity, IC50 converted to Kd; PP2A-B55 at 0.125 nM, radioactive CDKS substrate at 5 μM, varying thiophosphorylated Endos; Kd calculated from the IC50 according to the equation of Sasaki et al. (1994) and Takai et al. (1995).
Test [4] shares this target. As to the kind of experiment: rate constants calculated from constants of phosphatase activity assays; kon and koff determined from the experimentally measured Kd (for thiophosphorylated Endos) and kcat; used for the theoretical time-course of Figure 10A.
Test [5] shares this target. The source holds these as a separate data set.

The Kd is a measure of binding affinity in units of concentration. The term koff denotes a measure of how fast the partners let go of each other.

UniProt P63151, sequence (P63151 whole entry, chain 1 of 3, canonical isoform): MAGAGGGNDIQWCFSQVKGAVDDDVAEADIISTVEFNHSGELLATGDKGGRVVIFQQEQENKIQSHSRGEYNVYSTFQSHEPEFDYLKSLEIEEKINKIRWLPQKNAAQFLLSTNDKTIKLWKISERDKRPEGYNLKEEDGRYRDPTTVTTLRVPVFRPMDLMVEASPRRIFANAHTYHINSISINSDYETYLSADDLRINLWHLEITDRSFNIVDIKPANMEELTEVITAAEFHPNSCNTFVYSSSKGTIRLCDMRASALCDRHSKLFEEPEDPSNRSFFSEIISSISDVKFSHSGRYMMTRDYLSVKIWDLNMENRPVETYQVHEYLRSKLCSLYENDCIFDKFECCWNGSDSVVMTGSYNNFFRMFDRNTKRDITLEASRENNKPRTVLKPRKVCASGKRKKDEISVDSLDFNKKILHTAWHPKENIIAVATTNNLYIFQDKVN
UniProt P63151, sequence (P30153 whole entry, chain 2 of 3, further chain, canonical isoform): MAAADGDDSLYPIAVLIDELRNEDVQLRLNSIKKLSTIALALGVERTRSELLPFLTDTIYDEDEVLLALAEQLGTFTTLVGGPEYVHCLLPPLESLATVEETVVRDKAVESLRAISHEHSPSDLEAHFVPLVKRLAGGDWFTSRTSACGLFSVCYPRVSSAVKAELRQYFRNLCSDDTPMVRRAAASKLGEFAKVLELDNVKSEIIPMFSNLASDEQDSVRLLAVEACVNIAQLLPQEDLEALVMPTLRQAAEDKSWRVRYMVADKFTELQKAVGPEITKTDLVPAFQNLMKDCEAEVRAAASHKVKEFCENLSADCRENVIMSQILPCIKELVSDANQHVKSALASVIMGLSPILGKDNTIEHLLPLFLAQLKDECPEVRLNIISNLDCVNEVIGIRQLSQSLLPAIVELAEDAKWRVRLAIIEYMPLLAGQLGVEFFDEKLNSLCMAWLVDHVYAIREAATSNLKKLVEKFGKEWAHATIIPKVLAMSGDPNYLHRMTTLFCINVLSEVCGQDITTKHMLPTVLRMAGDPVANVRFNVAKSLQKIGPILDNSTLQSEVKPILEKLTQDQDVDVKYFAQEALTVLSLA
UniProt P63151, sequence (P67775 whole entry, chain 3 of 3, further chain, canonical isoform): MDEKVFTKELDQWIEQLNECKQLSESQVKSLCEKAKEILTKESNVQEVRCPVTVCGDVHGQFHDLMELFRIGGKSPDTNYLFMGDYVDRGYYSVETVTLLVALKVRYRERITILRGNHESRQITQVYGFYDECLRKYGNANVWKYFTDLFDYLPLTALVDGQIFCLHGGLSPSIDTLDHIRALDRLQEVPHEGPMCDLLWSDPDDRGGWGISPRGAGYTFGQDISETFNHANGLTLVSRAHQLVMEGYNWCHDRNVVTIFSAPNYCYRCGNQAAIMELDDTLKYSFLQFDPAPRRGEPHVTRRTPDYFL

B1: phosphomimetic Drosophila Endos (S68D) (natural protein)
chain: MSSAEENSNSPATTPQDTETTEQANLTDLEKIEEEKLKSKYPSGMRVPGGHSAFLQKRLQKGQKFFDDGDYQMAKQKGGGVKQVFANKVTTGEAIPTPETVPARKTSIIQPCNKFPATS
With B1, the IC50 of inhibition of the anti-CDKS activity of purified PP2A-B55α (Figure 6D) in test [1] is 500 nM.

B2: Xenopus Endosulfine thiophosphorylated by Gwl kinase (natural protein)
chain: MSDKYIGDSHLEETGEEKQDSQEKEAVTPEKAEEQKLKAKYPNLGQKPGGSDFLMKRLQKGQKYFDSGDYNMAKAKIKNKQLPCAGPDKNLVTGDHIPTPQDLPQRKSSLVTSKLAGHVEDLHHV
modifications: thiophosphorylated by Gwl in the presence of 1 mM ATP-[γ]-35S instead of ATP
As to B2, the IC50 of inhibition of PP2A-B55's anti-CDKS activity (dephosphorylation of radioactive pCDKS) in test [2] was found to be 197 pM. In addition, the Kd in test [3] is 0.12 nM.

B3: unphosphorylated Xenopus Endosulfine (natural protein)
chain: MSDKYIGDSHLEETGEEKQDSQEKEAVTPEKAEEQKLKAKYPNLGQKPGGSDFLMKRLQKGQKYFDSGDYNMAKAKIKNKQLPCAGPDKNLVTGDHIPTPQDLPQRKSSLVTSKLAGHVEDLHHV
On to B3, for which, in test [2], the IC50 of inhibition of PP2A-B55's anti-CDKS activity (dephosphorylation of radioactive pCDKS) turned out to be 566 nM.

B4: Gwl-phosphorylated Xenopus Endosulfine (pEndos) (natural protein)
chain: MSDKYIGDSHLEETGEEKQDSQEKEAVTPEKAEEQKLKAKYPNLGQKPGGSDFLMKRLQKGQKYFDSGDYNMAKAKIKNKQLPCAGPDKNLVTGDHIPTPQDLPQRKSSLVTSKLAGHVEDLHHV
modifications: phosphorylated in vitro by Gwl kinase at the Gwl site (32P-labelled or non-radioactive); between 0.5 and 1.0 phosphate per mole of protein
In the case of B4, the koff in test [4] is 0.0068 s⁻¹. In addition, in test [5], the Km of pEndos for PP2A-B55, best fit to the time course of pCDKS dephosphorylation with 16 nM unlabeled pEndos (Figure 8B) was determined as 0.47 nM.

The record behind these values is paper PMC3949306.
